This is an account of results in paper PMC7641331, “Ctf18-RFC and DNA Pol ϵ form a stable leading strand polymerase/clamp loader complex required for normal and perturbed DNA replication” (Nucleic Acids Research, 2019).

For data set [1], the target named is Pol2 1-528 (Saccharomyces cerevisiae) (UniProt P21951). As to conditions: cited from earlier work.
Data set [2] concerns the target Pol2CAT, the complete catalytic domain of Pol2 (residues 1–1192), exonuclease-deficient (D290A/E292A) (S. cerevisiae) (UniProt P21951). Nature of the data set: ITC; 170 μM Ctf18-1-8 titrated into 25 μM Pol2CAT in the presence of 50 μM P1P2 DNA; 25°C; 20 mM HEPES pH 7.5, 160 mM NaCl, 1 mM TCEP; 1:1 hetero-association model. Background: Isothermal titration calorimetry measures the heat released or taken up as one component is titrated into another.

Data set [3] concerns the target Pol2CAT (exonuclease-deficient DNA Pol epsilon catalytic domain);Ctf18-1-8 wild type (Ctf18 C-terminal … (Saccharomyces cerevisiae?;Saccharomyces …, UniProt P21951;P49956;P25559;P38877 1-1192;666-741;1-380;1-133, D290A;E292A|)). Kind of data set: EMSA supershift; 50 nM DNA; supershift saturated at 125 nM Ctf18-1-8 (lowest tested); DNA binding identical to Pol2CAT alone; EMSA: 25 mM HEPES pH 7.5, 60 mM KCl, 10% glycerol, 1 mM TCEP, 50 nM P1P2*, 20 min on ice, 6% Tris-glycine gel at 4 C. As to conditions: protein: recombinant;recombinant; tags: N-terminal His (pETM14); copies: 1;1;1;1; label: 5' Cy3 on P1; 5' overhang 5 nt on P2 (template); 11 bp duplex. (Mobility shift assays separate free from complexed probe on a gel.)

The target of data set [4] is T1, Pol2CAT (exonuclease-deficient DNA Pol epsilon catalytic domain) (UniProt P21951 1-1192, D290A;E292A).
T1 sequence: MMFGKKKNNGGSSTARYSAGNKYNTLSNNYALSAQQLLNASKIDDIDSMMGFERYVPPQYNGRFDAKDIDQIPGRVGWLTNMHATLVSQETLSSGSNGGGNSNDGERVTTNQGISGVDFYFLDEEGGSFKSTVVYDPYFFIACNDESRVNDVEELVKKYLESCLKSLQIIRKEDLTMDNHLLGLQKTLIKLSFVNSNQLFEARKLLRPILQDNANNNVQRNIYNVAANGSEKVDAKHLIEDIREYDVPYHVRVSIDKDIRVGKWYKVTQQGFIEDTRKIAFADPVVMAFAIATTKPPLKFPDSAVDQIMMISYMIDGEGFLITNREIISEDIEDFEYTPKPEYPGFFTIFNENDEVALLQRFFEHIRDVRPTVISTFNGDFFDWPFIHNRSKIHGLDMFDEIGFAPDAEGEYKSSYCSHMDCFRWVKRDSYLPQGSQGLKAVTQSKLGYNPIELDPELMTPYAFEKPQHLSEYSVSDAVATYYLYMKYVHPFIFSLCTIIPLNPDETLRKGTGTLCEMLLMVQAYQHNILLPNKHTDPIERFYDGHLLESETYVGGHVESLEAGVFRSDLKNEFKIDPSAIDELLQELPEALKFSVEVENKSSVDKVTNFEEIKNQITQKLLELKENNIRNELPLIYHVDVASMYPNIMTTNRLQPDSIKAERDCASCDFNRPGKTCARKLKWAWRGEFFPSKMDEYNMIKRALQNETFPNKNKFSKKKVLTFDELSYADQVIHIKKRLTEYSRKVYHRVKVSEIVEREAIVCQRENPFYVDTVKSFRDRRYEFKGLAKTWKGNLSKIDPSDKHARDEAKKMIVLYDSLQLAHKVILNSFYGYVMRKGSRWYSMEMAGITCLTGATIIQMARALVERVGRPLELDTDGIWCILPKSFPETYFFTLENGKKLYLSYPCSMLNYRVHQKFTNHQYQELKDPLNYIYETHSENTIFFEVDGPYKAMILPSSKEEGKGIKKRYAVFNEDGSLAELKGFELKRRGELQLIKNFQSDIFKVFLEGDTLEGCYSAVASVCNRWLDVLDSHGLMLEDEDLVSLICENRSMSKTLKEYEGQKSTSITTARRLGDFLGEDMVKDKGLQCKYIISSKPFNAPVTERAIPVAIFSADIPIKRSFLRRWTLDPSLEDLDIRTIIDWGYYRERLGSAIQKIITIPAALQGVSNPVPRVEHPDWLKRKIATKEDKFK
Nature of the data set: EMSA; 50 nM DNA, no dNTP; EMSA: 25 mM HEPES pH 7.5, 60 mM KCl, 10% glycerol, 1 mM TCEP, 50 nM P1P2*, 20 min on ice, 6% Tris-glycine gel at 4 C. As to conditions: protein: recombinant; tags: N-terminal His (pETM14); label: 5' Cy3 on P1; 5' overhang 5 nt on P2 (template); 11 bp duplex.

For data set [5], the target named is T2, Pol2CAT, the complete catalytic domain of Pol2 (residues 1–1192), exonuclease-deficient (D290A/E292A) (S. cerevisiae, UniProt P21951 1-1192, D290A | E292A).
T2 construct: Pol2, largest (catalytic) subunit of DNA Pol ϵ, S. cerevisiae, residues 1-1192; An iron-sulfur (4Fe4S) cluster is modelled in the structure; No tag cleavage step is described; also called POL2(1–1192)exo; Pol2 catalytic domain; source: E. coli BL21(DE3)Star, purified (Histrap, Superdex 200, MonoQ); not shown: His tag (from the Histrap column)
T2 sequence (looked up): T1 sequence
Kind of data set: cryo-EM structure; 2 μM Ctf18-1-8, Pol2CAT and P1P2* DNA in 20 mM HEPES pH 7.5, 160 mM NaCl, 1 mM TCEP; GraFix sucrose gradient with 0.15% glutaraldehyde; only DNA-free classes refined (Class 1 4.2 Å, Class 2 5.8 Å). Particulars: both partners purified.

Sequence of Pol2CAT (exonuclease-deficient DNA Pol epsilon catalytic domain);Ctf18-1-8 wild type (Ctf18 C-terminal … (P49956 666-741, chain 2 of 2): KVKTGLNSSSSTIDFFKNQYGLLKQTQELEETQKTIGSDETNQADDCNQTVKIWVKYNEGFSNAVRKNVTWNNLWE
Sequence of Pol2CAT (exonuclease-deficient DNA Pol epsilon catalytic domain);Ctf18-1-8 wild type (Ctf18 C-terminal … (P38877 whole entry, chain 4 of 2, the tested form may be a part): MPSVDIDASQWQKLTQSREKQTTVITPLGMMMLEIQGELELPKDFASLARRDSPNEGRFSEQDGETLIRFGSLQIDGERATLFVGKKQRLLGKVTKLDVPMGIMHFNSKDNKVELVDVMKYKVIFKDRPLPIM

Regarding Ctf18-1-8 (from UniProt P49956), the dissociation constant (Kd) (as a rule, a measure of binding affinity in units of concentration) in data set [1] is 1300 nM. In the case of “Ctf18-1-8 module (C-terminus of Ctf18 with Dcc1 and Ctf8), wild type (from UniProt P49956 1-741; P25559 1-380; P38877 1-133) (complex)”, the Kd in data set [2] came to 40 nM.

B1: P1P2* primer-template (dsDNA)
DNA 1: TAACCGCGTTC
DNA 2: CTCTTGAACGCGGTTA
Consider B1, for which the binding result in data set [3] and in data set [4] was “binds” in each case.

B2: Dcc1 (chain of the recombinant Ctf18-1-8 module) (natural protein, S. cerevisiae)
chain: MSINLHSAPEYDPSYKLIQLTPELLDIIQDPVQNHQLRFKSLDKDKSEVVLCSHDKTWVLKQRKHSNTVLLMREFVPEQPITFDETLLFGLSKPYMDVVGFAKTESEFETRETHGELNLNSVPIYNGELDFSDKIMKRSSTKVIGTLEELLENSPCSALEGISKWHKIGGSVKDGVLCILSQDFLFKALHVLLMSAMAESLDLQHLNVEDTHHAVGKDIEDEFNPYTREIIETVLNKFAVQEQEAENNTWRLRIPFIAQWYGIQALRKYVSGISMPIDEFLIKWKSLFPPFFPCDIDIDMLRGYHFKPTDKTVQYIAKSTLPMDPKERFKVLFRLQSQWDLEDIKPLIEELNSRGMKIDSFIMKYARRKRLGKKTVVTSR
notes: Dcc1, S. cerevisiae; The Dcc1 chain of m2, written alone for the pairs that touch in the structures; also called Dcc1WH3 (its last winged helix domain)
On to B2, for which the binding result in data set [5] is recorded as “binds”.
